Molecular target: vitreous collagen fibrils (rabbit), in the collagen-containing pellet (rabbit (endogenous in rabbit vitreous))
Experiment: co-sedimentation; vitreous of uninjected rabbit eyes digested with hyaluronan lyase (24 h, 37 °C), centrifuged 13 000g 30 min; opticin in supernatant and collagen-containing pellet quantified by SRM-MS

## endogenous rabbit opticin (natural protein)
  percent of opticin in the collagen-containing pellet: 6%

Reference: PMC7341526
